Test [1] concerns the target T1, Human CD93 on cells (human CD93 expressing CHO cells; HUVEC, U937 and KG1a cells) (human, UniProt Q9NPY3 22-652).
T1 construct: whole, on cells; also called hCD93 expressing CHO cells; hCD93 CHO cells
T1 sequence (looked up): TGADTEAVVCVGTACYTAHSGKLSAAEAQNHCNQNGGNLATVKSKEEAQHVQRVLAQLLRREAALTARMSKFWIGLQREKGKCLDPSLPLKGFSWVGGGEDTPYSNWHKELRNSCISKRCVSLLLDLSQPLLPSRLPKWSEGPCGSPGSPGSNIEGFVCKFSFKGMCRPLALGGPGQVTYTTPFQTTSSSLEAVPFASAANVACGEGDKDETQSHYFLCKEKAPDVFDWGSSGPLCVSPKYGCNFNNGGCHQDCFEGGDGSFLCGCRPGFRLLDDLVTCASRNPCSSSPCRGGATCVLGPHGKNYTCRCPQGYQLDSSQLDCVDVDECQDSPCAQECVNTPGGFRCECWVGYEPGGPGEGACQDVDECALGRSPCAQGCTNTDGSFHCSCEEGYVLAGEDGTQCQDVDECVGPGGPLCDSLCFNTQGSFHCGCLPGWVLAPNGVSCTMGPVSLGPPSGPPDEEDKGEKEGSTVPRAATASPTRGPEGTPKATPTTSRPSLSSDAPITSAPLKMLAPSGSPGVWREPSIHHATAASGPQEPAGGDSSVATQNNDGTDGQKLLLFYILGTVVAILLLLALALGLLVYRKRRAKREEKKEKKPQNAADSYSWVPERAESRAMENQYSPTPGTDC
As to the kind of experiment: flow cytometry titration, CHO-hCD93 cells; antibody stored 4 weeks at 40 C. As for the experimental part: (§1) Human CD93 expressing CHO cells were detached by incubation with TrypLE reagents (Thermo Fisher), which preserves the integrity of CD93 on the cell surface. Then the cells were incubated with serial diluted anti-CD93 antibodies for 30 minutes at 4° C. After washing by FACS buffer, the cells were incubated with Alexa Fluor 647 conjugated anti-human IgG (Jackson ImmunoResearch) for 30 minutes in 4° C. After washing by FACS buffer twice, the samples were acquired in NovoCyte Flow Cytometer and analyzed by NovoExpress software.
(In general: A flow cytometer gives signals particle by particle.)

In test [2] the target is T1, Human CD93 on cells (human CD93 …). As to the kind of experiment: flow cytometry titration, CHO-hCD93 cells. The method, then:
as §1

Test [3] shares this target. As to the kind of experiment: flow cytometry blocking assay, CHO-hCD93 cells, antibody 50 ug/ml then MMRN2 0.5 ug/ml, APC-A. The method, then: (§2) After incubation, the cells were washed with FACS buffer and incubated with anti-His conjugated APC or streptavidin conjugated APC at a ratio of 1:500 for 30 minutes at 4° C. After washing with FACS buffer twice, the samples were analyzed and data acquired in NovoCyte Flow.

In test [4] the target is T2, Mouse CD93 on cells (mouse CD93 expressing CHO cells; mouse CD93 expressing HEK cells) (mouse, UniProt O89103 23-644).
T2 construct: whole, on cells; also called mCD93 HEK; CD93-HEK cells
T2 sequence (looked up): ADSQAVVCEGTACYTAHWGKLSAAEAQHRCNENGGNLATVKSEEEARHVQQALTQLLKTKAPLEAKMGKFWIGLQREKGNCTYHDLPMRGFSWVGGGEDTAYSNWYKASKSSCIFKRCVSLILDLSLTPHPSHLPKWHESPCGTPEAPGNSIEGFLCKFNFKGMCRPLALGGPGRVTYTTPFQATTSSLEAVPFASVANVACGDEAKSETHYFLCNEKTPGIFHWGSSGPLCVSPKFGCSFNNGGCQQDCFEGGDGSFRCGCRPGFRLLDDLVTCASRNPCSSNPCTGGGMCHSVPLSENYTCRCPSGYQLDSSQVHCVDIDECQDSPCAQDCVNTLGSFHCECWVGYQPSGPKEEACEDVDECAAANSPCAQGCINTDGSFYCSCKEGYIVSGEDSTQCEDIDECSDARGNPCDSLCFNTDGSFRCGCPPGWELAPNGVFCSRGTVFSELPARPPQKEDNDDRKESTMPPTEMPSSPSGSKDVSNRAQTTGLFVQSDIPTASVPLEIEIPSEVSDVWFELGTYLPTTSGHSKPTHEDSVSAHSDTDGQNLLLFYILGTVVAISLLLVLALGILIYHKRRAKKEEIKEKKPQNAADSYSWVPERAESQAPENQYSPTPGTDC
As to the kind of experiment: summary table; method and form of mouse CD93 not given.

Test [5] concerns the target T1, Human CD93 on cells (human CD93 …). As to the kind of experiment: flow cytometry blocking assay, CHO-hCD93 cells, antibody 50 ug/ml then MMRN2 0.1 ug/ml, APC-A. As for the experimental part: as §2
Test [6] has the same target. As to the kind of experiment: flow cytometry blocking assay, CHO-hCD93 cells; blocked ligand hMMRN2 495-674 at 0.1 ug/ml. The method, then: Then the cells were incubated with hMMRN2₄₉₅₋₆₇₄ at 0.1 μg/ml. […] Then the cells were washed with FACS buffer and incubated with APC-conjugated anti-His tag antibody at 1 μg/ml for 30 minutes at 4° C. After washing with FACS buffer twice, the samples were analyzed and data acquired in NovoCyte Flow. Recombinant his tagged […] was produced internally in Expi_HEK following routine procedure.

The target is the same in test [7]. As to the kind of experiment: flow cytometry titration, HUVEC cells; antibody stored 4 weeks at 40 C; unit printed as nMM. The method, then: (§3) HUVEC cells were detached by incubation with TrypLE reagents (Thermo Fisher), which preserves the integrity of CD93 on the cell surface. Then the cells were incubated with serial diluted anti-CD93 antibodies for 30 minutes at 4° C. After washing by FACS buffer, the cells were incubated with Alexa Fluor 647 conjugated anti-human IgG (Jackson ImmunoResearch) for 30 minutes in 4° C. After washing by FACS buffer twice, the samples were acquired in NovoCyte Flow Cytometer and analyzed by NovoExpress software.

For test [8] the target is unchanged. As to the kind of experiment: flow cytometry titration, HUVEC cells. The method, then: as §3

The source of these data is patent publication US20230365705A1 (DYNAMICURE BIOTECHNOLOGY, published 2023).

B1: h16E4 (humanized 16E4, VH4+VL6) (antibody, V domains shown)
VH: QVQLVQSGAEVKKPGASVKVSCKASGYTFTSYWMHWVRQAPGQGLEWMGEIDPSASYTYYNQKFKGRVTMTRDKSSSTVYMELSSLTSEDSAVYYCARSVYYGNKYFDVWGAGTTVTVSS
VL: DIQMTQSPSTLSASVGDRVTITCKASQSVDYAGDSYMNWYQQKPGKAPKLLIYAASNLESGVPSRFSGSGSGTEFTLTISSLQPDDFATYYCQQTNEDPRTFGGGTKLEIK
notes: Detected with anti-human IgG, so a human Fc
Regarding B1, the EC50 in test [1] amounted to 0.312 nM; in test [2], 0.388 nM.

B2: 16E4 (hybridoma) (antibody, IgG2a, V domains shown)
VH: QVQLQQPGAELVKPGASVKLSCKASGYTFTSYWMHWVKQRPGQGLEWIGEIDPSASYTYYNQKFKGKATLTVDKSSSTAYMQLSSLTSEDSAVYYCARSVYYGNKYFDVWGAGTTVTVSS
VL: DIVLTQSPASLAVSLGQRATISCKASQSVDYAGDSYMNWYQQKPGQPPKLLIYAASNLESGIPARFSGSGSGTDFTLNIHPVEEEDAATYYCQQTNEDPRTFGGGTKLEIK
notes: also called 16E4 mAb; 16E4 mIgG2a
With B2, the results for the “M3 gate, % of cells positive for MMRN2 after the antibody” value in test [3] and in test [5] were 65.9% and 37.7%, respectively. The binding result in test [4] is recorded as “no binding”.

B3: h7F3 (humanized 7F3, VH3+VL3) (antibody, human IgG1, V domains shown)
VH: QVQLVQSGAEVKKPGASVKVSCKASGYTFTDYEMHWVRQAPGQGLEWMGGIDPETGDTAYNQNFKGRVTMTTDTSTSTAYMELRSLTSDDTAVYYCTNYGNLYYYAMDYWGQGTSVTVSS
VL: EIVLTQSPSSLSASVGDRVTITCRASSSVSSSYLHWYQQKPGKAPKLLIYSTSNLAFGVPSRFSGSGSGTSYTFTISSLQPEDIATYYCQQYSGYPLTFGSGTKLEIK
notes: also called humanized 7F3-hIgG1
The molecule B3 displayed an IC50 in test [6] of 0.133 nM. The EC50 in test [7] is 1.12 nM; in test [8], 1.34 nM.

Broadly, the EC50 is the concentration needed to bring the measured effect to its halfway point. The low end stands for an effect from little substance, the high end for a need for much substance. What is called IC50 is the concentration that inhibits the measured activity by half.
